Results from article PMC5078793, “ADAMTS-10 and -6 differentially regulate cell-cell junctions and focal adhesions” (Scientific Reports, 2016).

Tests used:
[1] = molecular target: T1, ADAMTS6 C-terminal region (human, UniProt Q9UKP5-1 558-1117); test: SPR; Biacore; ADAMTS protein (full-length or C-terminal region) immobilised by amine coupling on CM5 (~3000 RU); analyte injected at 30 ul/min; 10 mM HEPES pH 7.4, 0.1 M NaCl, 0.5 mM CaCl2, 0.005% P20; 1:1 kinetics or equilibrium analysis; settings: both partners purified
T1 construct: human ADAMTS6 variant 1, C-terminal region starting at the 1st TSR domain, residues 558-1117; The text calls it monomeric; also called C-terminal ADAMTS6; C-terminal fragment of ADAMTS6; source: 293-EBNA cells (pCEP-pu/AC7), purified (IMAC, 0.5 M NaCl)
T1 sequence (looked up): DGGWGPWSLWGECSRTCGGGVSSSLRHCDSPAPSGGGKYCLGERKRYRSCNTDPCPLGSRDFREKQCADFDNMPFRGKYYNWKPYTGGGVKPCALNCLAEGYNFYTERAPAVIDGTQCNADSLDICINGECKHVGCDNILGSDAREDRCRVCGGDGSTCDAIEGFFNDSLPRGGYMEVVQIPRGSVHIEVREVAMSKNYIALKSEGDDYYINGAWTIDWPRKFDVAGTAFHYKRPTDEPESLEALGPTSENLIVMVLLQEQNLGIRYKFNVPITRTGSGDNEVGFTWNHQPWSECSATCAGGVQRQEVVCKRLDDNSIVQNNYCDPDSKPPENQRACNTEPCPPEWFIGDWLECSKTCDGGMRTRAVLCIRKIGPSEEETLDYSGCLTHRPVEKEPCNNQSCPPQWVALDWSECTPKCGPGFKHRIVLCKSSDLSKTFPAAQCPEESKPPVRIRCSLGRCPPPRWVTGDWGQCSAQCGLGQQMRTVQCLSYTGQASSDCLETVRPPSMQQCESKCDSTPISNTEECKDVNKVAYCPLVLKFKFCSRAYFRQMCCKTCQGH

[2] = molecular target: T2, ADAMTS10 C-terminal region (human, UniProt Q9H324 547-1103); test: SPR; Biacore; syndecan-4 ectodomain immobilised, ADAMTS C-terminal regions injected; 10 mM HEPES pH 7.4, 0.1 M NaCl, 0.5 mM CaCl2, 0.005% P20; settings: both partners purified
T2 construct: human ADAMTS10 variant 1, C-terminal region starting at the 1st TSR domain, residues 547-1103; also called C-terminal ADAMTS10; source: 293-EBNA cells (pCEP-pu/AC7), purified (IMAC, 0.5 M NaCl)
T2 sequence (looked up): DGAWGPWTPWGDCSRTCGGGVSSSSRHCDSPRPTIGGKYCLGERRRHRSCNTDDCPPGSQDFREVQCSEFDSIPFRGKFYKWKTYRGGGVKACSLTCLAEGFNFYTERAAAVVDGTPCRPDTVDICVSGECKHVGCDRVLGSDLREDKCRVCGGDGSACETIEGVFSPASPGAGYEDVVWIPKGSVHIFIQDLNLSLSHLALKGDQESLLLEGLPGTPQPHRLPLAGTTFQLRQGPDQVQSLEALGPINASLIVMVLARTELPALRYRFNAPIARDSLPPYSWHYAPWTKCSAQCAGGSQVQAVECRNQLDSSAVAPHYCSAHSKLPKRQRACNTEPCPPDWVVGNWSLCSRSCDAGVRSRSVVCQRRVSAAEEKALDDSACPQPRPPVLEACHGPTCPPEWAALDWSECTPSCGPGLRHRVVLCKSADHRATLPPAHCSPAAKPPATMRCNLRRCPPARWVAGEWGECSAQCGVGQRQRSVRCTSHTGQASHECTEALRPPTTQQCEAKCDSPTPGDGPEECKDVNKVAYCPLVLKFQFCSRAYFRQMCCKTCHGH

[3] = molecular target: T1, ADAMTS6 C-terminal region; test: as above; settings: both partners purified
[4] = molecular target: the molecule itself; test: SDS-PAGE and western blot (SDS-resistant dimer); purified syndecan-4 ectodomain treated with heparinases I, II, III; anti-syndecan-4 blot; with or without ADAMTS6 overnight at 37 °C

B1: fibrillin-1 Ex6–11 fragment (domain or fragment)
chain: not shown
notes: human fibrillin-1, domains encoded by exons 6-11; source: 293-EBNA cells (pCEP-pu/AC7), purified (IMAC, size-exclusion chromatography)
- Kd [1]: 2.4 ± 1.2 nM

B2: syndecan-4 ectodomain (domain or fragment, human (cloned from ARPE-19A RNA), UniProt P31431 19-143, looked up)
chain: ESIRETEVIDPQDLLEGRYFSGALPDDEDVVGPGQESDDFELSGSGDLDDLEDSMIGPEVVHPLVPLDNHIPERAGSGSQVPTEPKKLEENEVIPKRISPVEESEDVSNKVSMSSTVQGSNIFER
modifications: the recombinant protein is modified with heparin chains
notes: syndecan-4 ectodomain cloned from RNA of ARPE-19A cells, residues 19-143 (ESI....IFE); Carries heparan sulphate chains in the SPR; also called Syn4 EC; syndecan-4 extracellular domain; source: 293-EBNA cells (pCEP-pu/AC7), purified (IMAC, size-exclusion chromatography)
- Kd [2]: 14 ± 1.1 nM
- Kd [3]: 12.9 ± 4 nM
- binding result [4]: binds
